Experimental data as given in paper PMC4388636.

Columns and labels:
[1] = target: toll like receptor-4 (human (endogenous in monocytes)) (UniProt O00206)
[2] = target: toll like receptor-4 (human (endogenous in monocytes)) (UniProt O00206); remark: listed apart in the source
[3] = target: toll like receptor-4 (human (endogenous in monocytes)) (UniProt O00206); remark: listed apart in the source
[4] = target: toll like receptor-4 (human (endogenous in monocytes)) (UniProt O00206); remark: listed apart in the source

Sequence of UniProt O00206 (O00206 24-839): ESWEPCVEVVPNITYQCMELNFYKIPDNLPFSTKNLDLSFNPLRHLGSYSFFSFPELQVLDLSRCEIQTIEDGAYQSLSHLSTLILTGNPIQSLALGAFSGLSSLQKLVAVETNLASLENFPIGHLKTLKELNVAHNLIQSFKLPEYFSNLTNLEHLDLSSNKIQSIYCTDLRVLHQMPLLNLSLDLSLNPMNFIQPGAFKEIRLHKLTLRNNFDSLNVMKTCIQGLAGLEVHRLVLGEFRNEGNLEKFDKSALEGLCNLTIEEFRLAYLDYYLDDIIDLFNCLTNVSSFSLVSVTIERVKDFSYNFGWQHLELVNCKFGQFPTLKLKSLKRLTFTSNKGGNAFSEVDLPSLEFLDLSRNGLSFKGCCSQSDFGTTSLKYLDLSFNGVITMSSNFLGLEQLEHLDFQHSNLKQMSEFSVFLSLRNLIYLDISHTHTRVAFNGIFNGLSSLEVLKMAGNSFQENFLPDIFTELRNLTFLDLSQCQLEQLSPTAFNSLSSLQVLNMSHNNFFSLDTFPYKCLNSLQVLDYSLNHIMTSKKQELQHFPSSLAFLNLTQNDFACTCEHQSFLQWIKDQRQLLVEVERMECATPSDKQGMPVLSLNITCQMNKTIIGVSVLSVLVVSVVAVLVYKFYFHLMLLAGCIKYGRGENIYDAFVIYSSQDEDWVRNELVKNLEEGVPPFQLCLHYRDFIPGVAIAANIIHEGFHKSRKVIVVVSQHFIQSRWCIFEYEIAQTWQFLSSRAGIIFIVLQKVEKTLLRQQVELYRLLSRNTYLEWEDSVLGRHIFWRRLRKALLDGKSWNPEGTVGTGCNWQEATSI

B1: recombinant Wolbachia heat shock protein 60 (natural protein)
chain: MTNVVVSGEQLQEAFREVAVMVDSTVAITAGPRGKTVGINKPYGAPEITKDGYKVMKGIKPEKPLHAAITSIFAQSCFQCNDKVGDGTTTCSILTSNMIMEALKSIAAGNDRVSIKNGMQKAKDAVLEGITSMSRTIPLEKMDEVAQVAIISANGDKDIGNSIADAVKKVGKEGVITVEESKGSKELEVELTTGMQFDRGYLSPYFITSNEKMIVEFDDPYLLITEKKLSIIQPLLPILEAVVKSGKPLLIIAEDIEGEALSTLVINKLRGGLKVTAVKAPGFGDRRKEMLEDIAALTGAKYVIKDELGIKMEDLTLEDLGTAKNVKVTKDNTTIVSGSSDSDRVKARVEQIKSQIETSTSDYDKEKLRERLAKLSGGVAVLKVGGVTEVEVKERRDRVEDALHATRAAIEEGIVPGGGVALLYASSALDKLKGGSDEEQIGINIIKKVLSAPIKRLVKNAGLESAVIIDHLTKQNDKELIYNVEAMNYANAFTAGVIDPAKVVRIAFETAISVASVLITTESMIVDVPNKEENASSSMGAGGMGGMNGF
What does the source list for B1?
dead monocytes after rWmhsp60, with rapamycin treatment before the stimulation [1]: 7.5%; late apoptotic monocytes after rWmhsp60, with rapamycin treatment before the stimulation [1]: 6.5%; dead monocytes (annexin-V-FITC-/PI+) after 24 h with rWmhsp60 [2]: 23%; dead monocytes after rWmhsp60, with pretreatment by anti-TLR-4 monoclonal antibodies for 2 h [2]: 6.5%; late apoptotic monocytes (annexin-V-FITC+/PI+) after 24 h with rWmhsp60 [2]: 18%; late apoptotic monocytes after rWmhsp60, with pretreatment by anti-TLR-4 monoclonal antibodies for 2 h [2]: 6%; ROS levels in monocytes after rWmhsp60, fluorimetry with DCF2-DA, fold change [3]: 3 fold; loss of mitochondrial membrane potential in monocytes after rWmhsp60, fluorimetry with TMRE, fold change [3]: 3 fold; SA-β-Gal–positive (senescent) monocytes after rWmhsp60 [4]: 78%; SA-β-Gal–positive (senescent) monocytes after rWmhsp60, with rapamycin pretreatment [4]: 10%
